The values that follow come from IntAct's records for PubMed 11106648.

To fix the notation:
B1: Tyrosine-protein phosphatase non-receptor type 1 (Homo sapiens), P18031 (parent)
chain: MEMEKEFEQIDKSGSWAAIYQDIRHEASDFPCRVAKLPKNKNRNRYRDVSPFDHSRIKLHQEDNDYINASLIKMEEAQRSYILTQGPLPNTCGHFWEMVWEQKSRGVVMLNRVMEKGSLKCAQYWPQKEEKEMIFEDTNLKLTLISEDIKSYYTVRQLELENLTTQETREILHFHYTTWPDFGVPESPASFLNFLFKVRESGSLSPEHGPVVVHCSAGIGRSGTFCLADTCLLLMDKRKDPSSVDIKKVLLEMRKFRMGLIQTADQLRFSYLAVIEGAKFIMGDSSVQDQWKELSHEDLEPPPEHIPPPPRPPKRILEPHNGKCREFFPNHQWVKEETQEDKDCPIKEEKGSPLNAAPYGIESMSQDTEVRSRVVGGSLRGAQAASPAKGEPSLPEKDEDHALSYWKPFLVNMCVATVLTAGAYLCYRFLFNSNT

One test covers variants of B1. As to conditions: with cadh2_chick CDH2, P10288.
Sequence of cadh2_chick CDH2, P10288 (P10288 whole entry): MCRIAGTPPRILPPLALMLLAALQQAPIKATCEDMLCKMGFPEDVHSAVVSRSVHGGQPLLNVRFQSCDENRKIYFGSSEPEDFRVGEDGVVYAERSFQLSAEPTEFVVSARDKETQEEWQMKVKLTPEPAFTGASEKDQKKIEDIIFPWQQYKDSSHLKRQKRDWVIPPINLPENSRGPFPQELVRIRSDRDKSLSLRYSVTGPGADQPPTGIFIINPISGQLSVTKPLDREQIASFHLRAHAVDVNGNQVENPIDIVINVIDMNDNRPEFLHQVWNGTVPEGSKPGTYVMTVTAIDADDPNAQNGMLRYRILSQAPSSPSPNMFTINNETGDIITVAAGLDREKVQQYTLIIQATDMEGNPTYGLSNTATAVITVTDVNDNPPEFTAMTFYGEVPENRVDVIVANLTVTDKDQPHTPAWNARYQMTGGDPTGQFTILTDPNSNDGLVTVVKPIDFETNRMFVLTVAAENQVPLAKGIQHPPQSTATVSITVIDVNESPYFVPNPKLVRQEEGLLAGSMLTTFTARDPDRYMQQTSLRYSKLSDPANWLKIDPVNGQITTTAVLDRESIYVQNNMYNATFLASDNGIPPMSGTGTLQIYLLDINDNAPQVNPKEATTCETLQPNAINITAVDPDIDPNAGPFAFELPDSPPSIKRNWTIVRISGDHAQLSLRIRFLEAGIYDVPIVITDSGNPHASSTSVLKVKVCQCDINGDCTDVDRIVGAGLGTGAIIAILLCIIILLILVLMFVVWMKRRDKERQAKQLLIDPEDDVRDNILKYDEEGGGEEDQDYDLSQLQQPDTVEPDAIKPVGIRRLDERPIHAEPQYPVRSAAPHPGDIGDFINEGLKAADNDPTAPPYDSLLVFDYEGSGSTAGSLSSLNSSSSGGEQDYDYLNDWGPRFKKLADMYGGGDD
As for Y153F, the “effect of a mutation on the interaction” value is recorded as “increasing interaction”.
Take Y66F;Y152F;Y153F: the “effect of a mutation on the interaction” value is “decreasing interaction”.
Still for that read-out and setting: in the case of C215S it was “increasing interaction”.
The same measure, in the same setting: the result for Y66F reads “increasing interaction”; that for Y66F;Y153F, “increasing interaction”; that for Y66F;Y152F, “decreasing interaction”.
On the same count and under the same terms, the result for Y152F reads “decreasing interaction”.

The variants in a further test derive from B1. The following applies: with cadh2_mouse Cdh2, P15116.
Sequence of cadh2_mouse Cdh2, P15116 (P15116 whole entry): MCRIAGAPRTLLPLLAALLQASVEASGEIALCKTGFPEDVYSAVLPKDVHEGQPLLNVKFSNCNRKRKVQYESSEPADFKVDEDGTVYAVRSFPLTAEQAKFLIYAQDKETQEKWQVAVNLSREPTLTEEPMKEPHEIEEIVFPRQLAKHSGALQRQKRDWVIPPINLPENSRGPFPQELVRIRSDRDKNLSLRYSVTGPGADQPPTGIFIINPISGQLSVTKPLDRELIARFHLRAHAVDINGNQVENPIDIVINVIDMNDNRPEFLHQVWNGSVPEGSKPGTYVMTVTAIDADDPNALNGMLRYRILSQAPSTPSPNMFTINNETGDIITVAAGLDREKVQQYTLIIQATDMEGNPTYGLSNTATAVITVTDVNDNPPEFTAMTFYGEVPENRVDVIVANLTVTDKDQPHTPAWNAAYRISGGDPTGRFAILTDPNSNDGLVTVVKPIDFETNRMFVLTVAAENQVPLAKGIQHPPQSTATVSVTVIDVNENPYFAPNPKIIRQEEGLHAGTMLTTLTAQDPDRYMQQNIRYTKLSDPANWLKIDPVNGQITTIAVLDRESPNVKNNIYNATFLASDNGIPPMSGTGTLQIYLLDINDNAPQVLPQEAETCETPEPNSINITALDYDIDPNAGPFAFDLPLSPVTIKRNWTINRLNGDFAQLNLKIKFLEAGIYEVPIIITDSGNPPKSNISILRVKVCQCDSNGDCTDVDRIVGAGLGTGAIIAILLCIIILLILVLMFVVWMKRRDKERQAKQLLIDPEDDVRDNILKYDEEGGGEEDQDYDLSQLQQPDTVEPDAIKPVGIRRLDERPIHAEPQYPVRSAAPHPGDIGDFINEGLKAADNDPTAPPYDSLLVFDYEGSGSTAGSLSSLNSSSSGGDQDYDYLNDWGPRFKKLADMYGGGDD
In the case of C215S, the “effect of a mutation on the interaction” value was “disrupting interaction strength”.

In a further test the parent is B1. As to conditions: with cadh2_mouse Cdh2, P15116. This is another data set of the same source.
On to Y152F, for which the “effect of a mutation on the interaction” value is reported as “disrupting interaction”.
